Test results: the Human Domainome abundance scans (Beltran et al. 2025)
± gives the uncertainty stated by the source.

B1: Nucleolar transcription factor 1, residues 408 to 469; numbered along this chain, P17480 (parent)
chain: KRPVSAMFIFSEEKRRQLQEERPELSESELTRLLARMWNDLSEKKKAKYKAREAALKAQSER

Variants of: B1
Assay: abundance fitness (aPCA) (normalised: wild type 0, dead -1); higher = more abundant; growth selection in yeast, the domain comes from the species named
Conditions: Homo sapiens

In order of rising abundance fitness:
1. L34R  -0.954 ± 0.06
2. L41G  -0.932 ± 0.049
3. L41P  -0.846 ± 0.093
4. Y49M  -0.839 ± 0.08
5. L34Y  -0.833 ± 0.14
6. Y49N  -0.807 ± 0.09
7. Y49T  -0.798 ± 0.12
8. E13P  -0.663 ± 0.074
9. K50P  -0.65 ± 0.077
10. L25N  -0.646 ± 0.13
11. Y49P  -0.615 ± 0.084
12. L41N  -0.609 ± 0.29
13. N39P  -0.608 ± 0.066
14. V4W  -0.602 ± 0.072
15. Y49H  -0.597 ± 0.096
16. S26F  -0.592 ± 0.11
17. Y49L  -0.577 ± 0.054
18. L34G  -0.566 ± 0.06
19. T31P  -0.423 ± 0.079
20. E13F  -0.359 ± 0.13
21. R52Y  -0.324 ± 0.11
22. E12F  -0.315 ± 0.081
23. T31F  -0.308 ± 0.12
24. E20P  -0.295 ± 0.065
25. E13Y  -0.29 ± 0.23
26. E12Y  -0.251 ± 0.087
27. L41T  -0.241 ± 0.065
28. V4R  -0.24 ± 0.055
29. V4P  -0.238 ± 0.11
30. F8Q  -0.236 ± 0.11
31. R52W  -0.234 ± 0.077
32. K45W  -0.232 ± 0.047
33. R22T  -0.229 ± 0.075
34. R62N  -0.224 ± 0.12
35. R2L  -0.215 ± 0.059
36. M37T  -0.212 ± 0.07
37. E53T  -0.211 ± 0.064
38. E13R  -0.207 ± 0.059
39. E13A  -0.205 ± 0.051
40. E12I  -0.201 ± 0.1
41. Q59W  -0.194 ± 0.065
42. R52G  -0.193 ± 0.048
43. E53L  -0.183 ± 0.056
44. E12G  -0.175 ± 0.056
45. R52A  -0.17 ± 0.066
46. E12H  -0.169 ± 0.09
47. A51C  -0.166 ± 0.094
48. L41A  -0.165 ± 0.061
49. S5L  -0.164 ± 0.048
50. E53M  -0.164 ± 0.07
51. E12V  -0.163 ± 0.052
52. L33R  -0.159 ± 0.055
53. R2I  -0.158 ± 0.17
54. L33K  -0.154 ± 0.085
55. A51I  -0.148 ± 0.075
56. S5Y  -0.146 ± 0.15
57. K44R  -0.139 ± 0.035
58. L25C  -0.134 ± 0.072
59. T31M  -0.133 ± 0.058
60. R22W  -0.132 ± 0.062
61. K50S  -0.131 ± 0.053
62. K45L  -0.131 ± 0.054
63. E12Q  -0.13 ± 0.065
64. Q19T  -0.128 ± 0.065
65. R52V  -0.127 ± 0.058
66. A55I  -0.126 ± 0.1
67. K44C  -0.126 ± 0.083
68. E53D  -0.123 ± 0.076
69. S5Q  -0.115 ± 0.087
70. R2D  -0.109 ± 0.15
71. K45F  -0.105 ± 0.088
72. L33C  -0.1 ± 0.1
73. R52H  -0.1 ± 0.099
74. V4Y  -0.099 ± 0.069
75. K45V  -0.097 ± 0.042
76. L34T  -0.096 ± 0.082
77. K44M  -0.096 ± 0.056
78. V4G  -0.094 ± 0.047
79. E20A  -0.092 ± 0.045
80. E12D  -0.092 ± 0.098
81. R22K  -0.089 ± 0.083
82. E12M  -0.089 ± 0.072
83. N39K  -0.087 ± 0.097
84. E53C  -0.086 ± 0.11
85. S28Q  -0.08 ± 0.071
86. E53V  -0.078 ± 0.051
87. S28T  -0.076 ± 0.056
88. Q19G  -0.076 ± 0.039
89. K50Y  -0.074 ± 0.22
90. E61C  -0.073 ± 0.13
91. N39M  -0.071 ± 0.071
92. P3Y  -0.071 ± 0.082
93. K45I  -0.07 ± 0.063
94. S11A  -0.07 ± 0.081
95. E61V  -0.069 ± 0.045
96. E61D  -0.069 ± 0.11
97. E12T  -0.069 ± 0.078
98. E20T  -0.067 ± 0.082
99. L41M  -0.066 ± 0.074
100. A55S  -0.065 ± 0.056
101. A35S  -0.063 ± 0.063
102. A55T  -0.062 ± 0.063
103. V4A  -0.061 ± 0.074
104. K45R  -0.061 ± 0.038
105. E61A  -0.059 ± 0.064
106. A51M  -0.059 ± 0.074
107. A51V  -0.059 ± 0.051
108. P3E  -0.059 ± 0.099
109. E12K  -0.059 ± 0.065
110. A55R  -0.058 ± 0.061
111. M7V  -0.058 ± 0.06
112. Q59P  -0.056 ± 0.075
113. M7P  -0.053 ± 0.077
114. A51Q  -0.053 ± 0.082
115. S28A  -0.053 ± 0.058
116. A51K  -0.052 ± 0.086
117. T31E  -0.051 ± 0.08
118. R62T  -0.051 ± 0.09
119. S28I  -0.046 ± 0.049
120. M7E  -0.045 ± 0.065
121. E61S  -0.045 ± 0.052
122. R52T  -0.042 ± 0.079
123. P3D  -0.04 ± 0.12
124. A55D  -0.039 ± 0.12
125. F8S  -0.039 ± 0.053
126. N39T  -0.038 ± 0.065
127. N39A  -0.037 ± 0.042
128. K50R  -0.032 ± 0.055
129. V4L  -0.031 ± 0.055
130. S5G  -0.031 ± 0.051
131. Q59T  -0.029 ± 0.05
132. A55C  -0.028 ± 0.08
133. M7H  -0.028 ± 0.16
134. E12S  -0.028 ± 0.049
135. Q59R  -0.027 ± 0.038
136. L33M  -0.023 ± 0.17
137. K44T  -0.023 ± 0.059
138. K45S  -0.023 ± 0.04
139. Y49W  -0.022 ± 0.06
140. N39D  -0.021 ± 0.28
141. P3F  -0.021 ± 0.079
142. S5D  -0.02 ± 0.061
143. Q19S  -0.02 ± 0.041
144. A35Q  -0.017 ± 0.095
145. K50E  -0.017 ± 0.08
146. M7K  -0.015 ± 0.052
147. M7Y  -0.012 ± 0.086
148. Q59D  0 ± 0.091
149. E61T  0.003 ± 0.077
150. K44S  0.003 ± 0.041
151. R62Q  0.004 ± 0.1
152. Q19K  0.007 ± 0.068
153. Q19I  0.009 ± 0.091
154. Q59M  0.011 ± 0.054
155. M7Q  0.012 ± 0.076
156. R62W  0.014 ± 0.11
157. A35T  0.014 ± 0.093
158. R52K  0.014 ± 0.1
159. F8N  0.024 ± 0.09
160. R62E  0.027 ± 0.19
161. Q59K  0.03 ± 0.071
162. E20D  0.031 ± 0.11
163. P3I  0.036 ± 0.12
164. V4E  0.037 ± 0.11
165. A55F  0.059 ± 0.17
166. K44D  0.059 ± 0.087
167. S11M  0.093 ± 0.06
